Data taken from patent US20130059773A1, “COMPOUNDS FOR THE TREATMENT OF INFLAMMATION AND NEUTROPENIA” (priority 2010, published 2013).

B1: Ovalbumin: control protein tested at the same concentration (protein, UniProt P01012 2-386, looked up)
Ovalbumin: GSIGAASMEFCFDVFKELKVHHANENIFYCPIAIMSALAMVYLGAKDSTRTQINKVVRFDKLPGFGDSIEAQCGTSVNVHSSLRDILNQITKPNDVYSFSLASRLYAEERYPILPEYLQCVKELYRGGLEPINFQTAADQARELINSWVESQTNGIIRNVLQPSSVDSQTAMVLVNAIVFKGLWEKAFKDEDTQAMPFRVTEQESKPVQMMYQIGLFRVASMASEKMKILELPFASGTMSMLVLLPDEVSGLEQLESIINFEKLTEWTSSNVMEERKIKVYLPRMKMEEKYNLTSVLMAMGITDVFSSSANLSGISSAESLKISQAVHAAHAEINEAGREVVGSAEAGVDAASVSEEFRADHPFLFCIKHIATNAVLFFGRCVSP
B2: G-CSF: survival factor extending neutrophil longevity (protein, UniProt P09919 31-207, looked up)
Granulocyte …: TPLGPASSLPQSFLLKCLEQVRKIQGDGAALQEKLVSECATYKLCHPEELVLLGHSLGIPWAPLSSCPSQALQLAGCLSQLHSGLFLYQGLLQALEGISPELGPTLDTLQLDVADFATTIWQQMEELGMAPALQPTQGAMPAFASAFQRRAGGVLVASHLQSFLEVSYRVLRHLAQP

Experiments:
procaspase-9 = molecular target: T1, procaspase-9 (Homo sapiens, UniProt P55211); experiment: In vitro procaspase-9 activation assay using neutrophil cytosol, cytochrome c and dATP; assay type: biochemical; set-up: dose or concentration left out as unconfirmed
T1 construct: using neutrophil cytosol containing all the apoptosome components, i.e., procaspase-9; endogenous in cells; host or cells: neutrophil cytosol (primary neutrophils)
T1 sequence (P55211 1-416): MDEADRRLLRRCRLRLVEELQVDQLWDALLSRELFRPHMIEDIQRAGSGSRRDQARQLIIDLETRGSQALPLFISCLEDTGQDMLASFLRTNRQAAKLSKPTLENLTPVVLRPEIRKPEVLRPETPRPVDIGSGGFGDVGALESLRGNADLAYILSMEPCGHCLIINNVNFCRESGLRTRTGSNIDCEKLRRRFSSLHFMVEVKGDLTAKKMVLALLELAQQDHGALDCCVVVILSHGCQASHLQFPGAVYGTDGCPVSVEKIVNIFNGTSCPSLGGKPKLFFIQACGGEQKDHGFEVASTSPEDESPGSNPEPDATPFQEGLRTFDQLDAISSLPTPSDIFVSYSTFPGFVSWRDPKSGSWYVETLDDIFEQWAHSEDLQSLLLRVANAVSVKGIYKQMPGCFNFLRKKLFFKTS
Description: That hypothesis was tested by evaluating procaspase-9 cleavage in an in vitro assay, using neutrophil cytosol containing all the apoptosome components, i.e., procaspase-9 and apoptotic protease-activating factor-1 (Apaf-1) as previously described (McStay et al. 2008; Cell Death Differ. 15:322-331).

neutrophils [1] = experiment: Neutrophil apoptosis/survival by phosphatidylserine externalization after annexin-V and 7-AAD labeling; assay type: cell-based, human; conditions: G-CSF 200 or 1000 U/ml, 15 h at 37° C.
Description: Analysis of apoptosis. Neutrophil apoptosis was triggered by incubating neutrophils at 37° C. alone (constitutive apoptosis) or with anti-Fas mAb (10 ng/ml; Beckman-Coulter) or gliotoxin ([…]; Sigma) (Ward et al. 1999, J. Biol. Chem. 274:4309-4318) for the indicated times. Neutrophil apoptosis was evaluated by phosphatidylserine externalization after annexin-V and 7-AAD labeling (Kantari et al. 2007, Blood 110:4086-4095); mitochondrial depolarization after DiOC6 labeling (Moriceau et al. 2009, J. Immuno1.182:7254-7263); caspase-3 and caspase-8 activities measured by spectrophotometry (Biovision) in neutrophil lysates. In DMF-differentiated-PLB985 cells, apoptosis was triggered by gliotoxin or by rTRAIL (10 ng/ml; RD System) (Yin et al. 2005, Int. J. Biochem. Cell Biol. 37:1696-1708) and caspase-8 and caspase-9 activities were determined after gating on CD11b^+ cells using the Caspase-Glow® assay (Promega). Apoptosis-induced chromatin condensation and DNA fragmentation were assessed, respectively, after DNA staining with the blue fluorescent dye Hoechst (5 mg/ml) and propidium-iodide staining (Goepel et al. 2004, J. Leukoc. Biol. 75:836-843). Carboxyp21 ([…], SEQ ID NO: 24) corresponding to the p21 carboxy-terminus sequence (residues 141-160) and containing a RYIRS carboxy-terminal extension to facilitate its cell entry was synthesized and purified (Genecust). […]

PCNA = PCNA expression in neutrophils by Western blot; assay type: cell-based, human; conditions: G-CSF 1000 U/ml, 6 h to 15 h
Description: Western blot analysis and co-immunoprecipitation experiments. Neutrophils were sonicated and cytosolic proteins were analyzed using either the PC10 mAb or the Ab5 pAb anti-PCNA according to standard immunoblot procedures (Moriceau et al. 2009, J. Immunol. 182:7254-7263). Co-immunoprecipitation experiments were performed using neutrophil cytosols obtained by cavitation (Witko-Sarsat et al. 1999, Blood 94:2487-2496). Cytosol ([…]) was mixed with […] of protein G and Ab5 pAb and incubated for 30 min at 4° C. under shaking. The sample was loaded onto a column containing Sepharose-coated magnetic beads (Milteny), washed with a stringent washing buffer (50 mM Tris, 500 mM NaCl, 1% NP-40, 0.5% Triton X-100). […] The sample was eluted from the column with […] 5× sample buffer and analyzed by Western blotting using different mAb to potential partners. PCNA was detected on the Western blot with the PC10 mAb and procaspases were detected with either anti-procaspase-8 (Calbiochem) mAb or mouse anti-procaspase-10 (Santa Cruz) or anti-procaspase-9 (Santa Cruz) or anti-procaspase-3 (Santa Cruz) mAbs, followed by horseradish peroxidase-conjugated anti-mouse IgG (Nordic Immunology diluted 1:5000), using the SuperSignal West Pico detection kit (Pierce).

neutrophils [2] = experiment: Neutrophils isolated from G-CSF-treated healthy donors: PCNA content and constitutive apoptosis; assay type: in vivo, human
Description: Neutrophil isolation, granulocytic differentiation of CD34^+ precursors and cell culture. Human neutrophils from healthy (Etablissement Francais du Sang, Paris) or G-CSF-treated healthy donors ([…] for 5 days to induce hematopoietic stem cells mobilization) (Biotherapy Department, Necker Hospital, France) were isolated from EDTA-anticoagulated blood, using density-gradient centrifugation through polymorphoprep (Nycomed), as described in Witko-Sarsat et al. (1999, Blood 94:2487-2496). […]
Western blot analysis and co-immunoprecipitation experiments. Neutrophils were sonicated and cytosolic proteins were analyzed using either the PC10 mAb or the Ab5 pAb anti-PCNA according to standard immunoblot procedures (Moriceau et al. 2009, J. Immunol. 182:7254-7263). […] The sample was eluted from the column with […] 5× sample buffer and analyzed by Western blotting using different mAb to potential partners. PCNA was detected on the Western blot with the PC10 mAb and procaspases were detected with either anti-procaspase-8 (Calbiochem) mAb or mouse anti-procaspase-10 (Santa Cruz) or anti-procaspase-9 (Santa Cruz) or anti-procaspase-3 (Santa Cruz) mAbs, followed by horseradish peroxidase-conjugated anti-mouse IgG (Nordic Immunology diluted 1:5000), using the SuperSignal West Pico detection kit (Pierce).

Molecule | Procaspase-9 cleavage / activation (procaspase-9) | Neutrophil survival (annexin-V− 7-AAD− cells) (neutrophils [1]) | Effect on decrease of PCNA expression during incubation at 37° C. (PCNA) | PCNA content of neutrophils from treated donors (immunoblotting) (neutrophils [2]; healthy donors treated with G-CSF for 5 days, compared to before treatment) | Constitutive apoptosis of neutrophils from treated donors (neutrophils [2]; healthy donors treated with G-CSF, 15-h culture)
B1 | did not affect pro-caspase 9 activation |  |  |  | 
B2 |  | prolonged neutrophil survival | totally prevented | markedly increased | decreased tendency of these neutrophils to undergo constitutive apoptosis
